# Reference: the RNAGym collection of RNA variant scans (doi:10.7554/elife.80360)
# B1: Hairpin Ribozyme (parent)
# chain: GUCCUCUUUCACGUGCGCGUGAAAGAGAGAAGUGAACCAGAGAAACACACGUUGUGGUAUAUUACCUGGUA
# Variants of: B1
# Assay: self-cleavage, relative activity (ratio to wild type); higher = more cleavage; co-transcriptional
row,Variant,self-cleavage
1,GUCCUCUUUCACGUGCGCGUGAAAGAGAGAAGUCAACCAGAGAAACACACAUUGUGGUAUAUUACCUGGUA,1.61
2,GUCCUCUUUCACGUGCGCGUGAAAGAGAGAAGUCGACCAGAGAAACACACGUUGUGGUAUAUUACCUGGUA,1.4
3,GUCCUCUUUCACGUGCGCGUGAAAGAGAGAAGUCCACCAGAGAAACACACGUUGUGGUAUAUUACCUGGUA,1.25
4,GUCCUCUUUCACGUGCGCGUGAAAGAGAGAAGUCAACCAGAGAAACACACGUUGUGGUAUAUUACCUGGUC,1.76
5,GUCCUCUUUCACGUGCGCGUGAAAGAGAGAAGUAAACCAGAGAAACACACGUUGUGGUAGAUUACCUGGUA,1
6,GUCCUCUUUCACGUGCGCGUGAAAGAGAGAAGUCAACCAGAGAAACACACGUUGUGGUAUCUUACCUGGUA,0.733
7,GUCCUCUUUCACGUGCGCGUGAAAGAGAGAAGUCAACCAGAGAAACACACGGUGUGGUAUAUUACCUGGUA,0.379
8,GUCCUCUUUCACGUGCGCGUGAAAGAGAGAAGUAAACCAGAGAAACACACGUUGUGGGAUAUUACCUGGUA,1.36
9,GUCCUCUUUCACGUGCGCGUGAAAGAGAGAAGUAAACCAGAGAAACACACGUUGUGGAAUAUUACCUGGUA,1.09
10,GUCCUCUUUCACGUGCGCGUGAAAGAGAGAAGUAAACCAGAGAAACACACGUUGUGGUAUAUUACCUGUUA,0.208
11,GUCCUCUUUCACGUGCGCGUGAAAGAGAGAAGUCAACCAGAGAAACACACGUUGUGGUAUAUUACCUGGCA,1.42
12,GUCCUCUUUCACGUGCGCGUGAAAGAGAGAAGUAAACCAGAGAAACACACGUUGUGGUAUAUUUCCUGGUA,0.125
13,GUCCUCUUUCACGUGCGCGUGAAAGAGAGAAGUCAACCAGAGAAGCACACGUUGUGGUAUAUUACCUGGUA,0.368
14,GUCCUCUUUCACGUGCGCGUGAAAGAGAGAAGUCAACCAGAGAAACACACGUUGUGGUAUAUUACCUGCUA,0.564
15,GUCCUCUUUCACGUGCGCGUGAAAGAGAGAAGUCAAACAGAGAAACACACGUUGUGGUAUAUUACCUGGUA,0.898
16,GUCCUCUUUCACGUGCGCGUGAAAGAGAGAAGUCAAGCAGAGAAACACACGUUGUGGUAUAUUACCUGGUA,0.781
17,GUCCUCUUUCACGUGCGCGUGAAAGAGAGAAGUCAACCAGAGAAACACAUGUUGUGGUAUAUUACCUGGUA,1.36
18,GUCCUCUUUCACGUGCGCGUGAAAGAGAGAAGUCAACCAGAGAAACACAGGUUGUGGUAUAUUACCUGGUA,1.45
19,GUCCUCUUUCACGUGCGCGUGAAAGAGAGAAGUAAACCAGAGAAACACACGUUGUGGUAUAUUACCUGGUC,1.6
20,GUCCUCUUUCACGUGCGCGUGAAAGAGAGAAGUAAACCAGAGAAACACACGUUGUGGUAUAUUACCCGGUA,0.463
21,GUCCUCUUUCACGUGCGCGUGAAAGAGAGAAGUAAACCAGAGAAACACACGUUGUGGUAUAUUACCGGGUA,0.346
22,GUCCUCUUUCACGUGCGCGUGAAAGAGAGAAGUCAACCAGAGAAACACACGUUGUGGUAUAUUUCCUGGUA,0.442
23,GUCCUCUUUCACGUGCGCGUGAAAGAGAGAAGUCAACCAGAGAAACACACGUUGUGGUAUAUUGCCUGGUA,0.792
24,GUCCUCUUUCACGUGCGCGUGAAAGAGAGAAGUCAACCAGAGAAACACACGUUUUGGUAUAUUACCUGGUA,1.19
25,GUCCUCUUUCACGUGCGCGUGAAAGAGAGAAGUUAACCAGAGAAACCCACGUUGUGGUAUAUUACCUGGUA,1.2
26,GUCCUCUUUCACGUGCGCGUGAAAGAGAGAAGUAAACCAGAGAAACACACGUUGUGGUAUGUUACCUGGUA,0.091

row,Variant,self-cleavage
1,GUCCUCUUUCACGUGCGCGUGAAAGAGAGAAGUUAACCAGAGAAACACACGUUGUGGUAUAUUGCCUGGUA,1.17
2,GUCCUCUUUCACGUGCGCGUGAAAGAGAGAAGUUAACCAGAGAAACACACGUUGUGGUAUAUUCCCUGGUA,0.376
3,GUCCUCUUUCACGUGCGCGUGAAAGAGAGAAGUAAACCAGAGAAACACACGUUGUGGUAUAUUACAUGGUA,0.469
4,GUCCUCUUUCACGUGCGCGUGAAAGAGAGAAGUCAACCAGAGAAACACACGUUGUGGUAUAUGACCUGGUA,0.262
5,GUCCUCUUUCACGUGCGCGUGAAAGAGAGAAGUCAACCAGAGAAACACACGUUGUGGUAUAUAACCUGGUA,0.293
6,GUCCUCUUUCACGUGCGCGUGAAAGAGAGAAGUUAACCAGAGAAACACACGUUGUGGUAUAUUACCUGGUG,1.58
7,GUCCUCUUUCACGUGCGCGUGAAAGAGAGAAGUUAACCAGAGAAACACACGUUGUGGUAUAUUACCUGGUU,1.36
8,GUCCUCUUUCACGUGCGCGUGAAAGAGAGAAGUCAACCAGAGAAACACACGUUGUGGUAUAUUACAUGGUA,0.693
9,GUCCUCUUUCACGUGCGCGUGAAAGAGAGAAGUAAACCAGAGAAACACACGAUGUGGUAUAUUACCUGGUA,1.31
10,GUCCUCUUUCACGUGCGCGUGAAAGAGAGAAGUAAACCAGAGAAACACACGUUGCGGUAUAUUACCUGGUA,0.487
11,GUCCUCUUUCACGUGCGCGUGAAAGAGAGAAGUCAACCCGAGAAACACACGUUGUGGUAUAUUACCUGGUA,0.9
12,GUCCUCUUUCACGUGCGCGUGAAAGAGAGAAGUAAACCAGAGAAAUACACGUUGUGGUAUAUUACCUGGUA,0.135
13,GUCCUCUUUCACGUGCGCGUGAAAGAGAGAAGUUCACCAGAGAAACACACGUUGUGGUAUAUUACCUGGUA,1.2
14,GUCCUCUUUCACGUGCGCGUGAAAGAGAGAAGUUGACCAGAGAAACACACGUUGUGGUAUAUUACCUGGUA,1.47
15,GUCCUCUUUCACGUGCGCGUGAAAGAGAGAAGUAAACCAGAGAAACAUACGUUGUGGUAUAUUACCUGGUA,0.191
16,GUCCUCUUUCACGUGCGCGUGAAAGAGAGAAGUUAACCAGUGAAACACACGUUGUGGUAUAUUACCUGGUA,1.53
17,GUCCUCUUUCACGUGCGCGUGAAAGAGAGAAGUCAACCAGAGAAACACACGUUGUGGUAUAUUACCGGGUA,0.517
18,GUCCUCUUUCACGUGCGCGUGAAAGAGAGAAGUAAACCAGAGAAACACACGUGGUGGUAUAUUACCUGGUA,1.17
19,GUCCUCUUUCACGUGCGCGUGAAAGAGAGAAGUCAACCAUAGAAACACACGUUGUGGUAUAUUACCUGGUA,0.541
20,GUCCUCUUUCACGUGCGCGUGAAAGAGAGAAGUAAACCAGAGAACCACACGUUGUGGUAUAUUACCUGGUA,0.202
21,GUCCUCUUUCACGUGCGCGUGAAAGAGAGAAGUAAAUCAGAGAAACACACGUUGUGGUAUAUUACCUGGUA,0.915
22,GUCCUCUUUCACGUGCGCGUGAAAGAGAGAAGUAAACCAGAGAAACACGCGUUGUGGUAUAUUACCUGGUA,0.754
23,GUCCUCUUUCACGUGCGCGUGAAAGAGAGAAGUAAACCAGAGAAACACCCGUUGUGGUAUAUUACCUGGUA,0.12
24,GUCCUCUUUCACGUGCGCGUGAAAGAGAGAAGUCAACCAGAGAAACACACGUUGUGCUAUAUUACCUGGUA,0.195
25,GUCCUCUUUCACGUGCGCGUGAAAGAGAGAAGUAAACCAGAGAAACACAUGUUGUGGUAUAUUACCUGGUA,0.653
26,GUCCUCUUUCACGUGCGCGUGAAAGAGAGAAGUCAACCAGAGAAAGACACGUUGUGGUAUAUUACCUGGUA,0.0437

row,Variant,self-cleavage
1,GUCCUCUUUCACGUGCGCGUGAAAGAGAGAAGUCAACCAGAGAAAAACACGUUGUGGUAUAUUACCUGGUA,0.238
2,GUCCUCUUUCACGUGCGCGUGAAAGAGAGAAGUCAACCAGAGAAACAGACGUUGUGGUAUAUUACCUGGUA,0.16
3,GUCCUCUUUCACGUGCGCGUGAAAGAGAGAAGUCAACCAGAGAAACACACGUUGUGGUAUAUUACCUCGUA,0.484
4,GUCCUCUUUCACGUGCGCGUGAAAGAGAGAAGUAAACCAGAGAAACUCACGUUGUGGUAUAUUACCUGGUA,0.144
5,GUCCUCUUUCACGUGCGCGUGAAAGAGAGAAGUAAACCAGAGAAACGCACGUUGUGGUAUAUUACCUGGUA,0.302
6,GUCCUCUUUCACGUGCGCGUGAAAGAGAGAAGUAAACCAGAGAAACCCACGUUGUGGUAUAUUACCUGGUA,0.451
7,GUCCUCUUUCACGUGCGCGUGAAAGAGAGAAGUAAACCAGAGAAACACACGUUGUGGUAUAUUAGCUGGUA,0.477
8,GUCCUCUUUCACGUGCGCGUGAAAGAGAGAAGUCAACCAGAGAAACACACGUUGCGGUAUAUUACCUGGUA,1.19
9,GUCCUCUUUCACGUGCGCGUGAAAGAGAGAAGUCAACCAGAGAAACACGCGUUGUGGUAUAUUACCUGGUA,1.42
10,GUCCUCUUUCACGUGCGCGUGAAAGAGAGAAGUUAACCAGAGUAACACACGUUGUGGUAUAUUACCUGGUA,0.0758
11,GUCCUCUUUCACGUGCGCGUGAAAGAGAGAAGUUAACCAGAGCAACACACGUUGUGGUAUAUUACCUGGUA,0.0997
12,GUCCUCUUUCACGUGCGCGUGAAAGAGAGAAGUCAACCAGAGGAACACACGUUGUGGUAUAUUACCUGGUA,0.0982
13,GUCCUCUUUCACGUGCGCGUGAAAGAGAGAAGUCAACCAGAGAAACACACGUUGUGGUAUAUUAUCUGGUA,1.04
14,GUCCUCUUUCACGUGCGCGUGAAAGAGAGAAGUCAACCAGAGAAACACACGUUGUGGUAUAUUAGCUGGUA,1.07
15,GUCCUCUUUCACGUGCGCGUGAAAGAGAGAAGUUAACCAGAGAAACACACGUUGUGGUAUCUUACCUGGUA,1.2
16,GUCCUCUUUCACGUGCGCGUGAAAGAGAGAAGUUAACCAGAGAAACACACGUUGUGGUAUGUUACCUGGUA,0.636
17,GUCCUCUUUCACGUGCGCGUGAAAGAGAGAAGUCAACCAGAUAAACACACGUUGUGGUAUAUUACCUGGUA,1.19
18,GUCCUCUUUCACGUGCGCGUGAAAGAGAGAAGUUAACCAGAGAACCACACGUUGUGGUAUAUUACCUGGUA,0.213
19,GUCCUCUUUCACGUGCGCGUGAAAGAGAGAAGUCAACCAGAGAAACACACGUUGUGGGAUAUUACCUGGUA,1.09
20,GUCCUCUUUCACGUGCGCGUGAAAGAGAGAAGUCAACCAGAGAAACACACGUUGUGGAAUAUUACCUGGUA,1.27
21,GUCCUCUUUCACGUGCGCGUGAAAGAGAGAAGUUAACCAGAGACACACACGUUGUGGUAUAUUACCUGGUA,0.202
22,GUCCUCUUUCACGUGCGCGUGAAAGAGAGAAGUCAACCAGAGAAACACACGUUGUGGUUUAUUACCUGGUA,0.202
23,GUCCUCUUUCACGUGCGCGUGAAAGAGAGAAGUCAACCAGAGAAACACACGUUGUGGUCUAUUACCUGGUA,0.145
24,GUCCUCUUUCACGUGCGCGUGAAAGAGAGAAGUAAACCAGAGAAACACACGUUGUGGUAUAUUACCUGGCA,1.05
